Substitutions are numbered along the chain they refer to. Names may count otherwise.
B1: IGF2R domain 11^AB5 (receptor)
chain: MKSNEHDDCQVTNPSTGHLFDLSSLSGRAGFTAAYAKGWGVYMSICGENENCPPGVGACFGQTRISVGKANKRLRYVDQVLQLVYKDGSPCPSKSGLSYKSVISFVCRPEAGPTNRPMLISLDKQTCTLFFSWHTPLACEQATECSV
notes: His6-tagged soluble domain 11; also called 1542YAKGWG1547
B2: domain 11^AB3 Q1569R P1597H S1602H G1603K (receptor)
chain: B1 chain with A36S, G38S, W39G, G40V, Q62R, P90H, S95H, G96K
notes: See m5
B3: domain 11^AB5 Q1569R P1597H (receptor)
chain: B1 chain with Q62R, P90H
notes: See m5
B4: domain 11^AB3 Q1569R P1597H S1602H (receptor)
chain: B1 chain with A36S, G38S, W39G, G40V, Q62R, P90H, S95H
notes: See m5
B5: domain 11^AB5 Q1569R P1597H G1603K (receptor)
chain: B1 chain with Q62R, P90H, G96K
notes: See m5
B6: domain 11^AB5 Q1569R P1597H S1602H (receptor)
chain: B1 chain with Q62R, P90H, S95H
notes: See m5
B7: domain 11^AB5 P1597H S1602H (receptor)
chain: B1 chain with P90H, S95H
notes: See m5
B8: domain 11^AB3 Q1569R P1597H (receptor)
chain: B1 chain with A36S, G38S, W39G, G40V, Q62R, P90H
notes: See m5

Molecular target: T1, human IGF2^1-67 (mature insulin-like growth factor 2) (human, UniProt P01344 25-91, biotinylated (site not stated) where immobilised on the chip (Tables 1-4))
T1 construct: mature; also called mature IGF2; biotinylated IGF2
T1 sequence (P01344 25-91): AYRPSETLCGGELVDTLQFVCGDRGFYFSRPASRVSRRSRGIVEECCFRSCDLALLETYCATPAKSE
Assay: SPR

fold higher affinity than domain 11^WT [fold] | Binder
10 | B1

Molecular target: T1, human IGF2^1-67 (mature insulin-like …)
Assay: SPR, pH 7.4; pH 7.4
Experimental: (§1) Final kinetic analysis of mutants by SPR was conducted using a Biacore T200 biosensor at 25° C. in either HBS-EP (10 mM HEPES pH 7.4, 150 mM NaCl, 3 mM EDTA, and 0.005% (v/v) surfactant P20) or MES-EP (20 mM MES pH 6.5, 150 mM NaCl, 3 mM EDTA, and 0.005% (v/v) surfactant P20) at a flow-rate of 40 μL min⁻¹. […] For the analysis of the Fc-domain 11^AB5 interaction, approximately 50 RU of a biotinylated IGF2:biotinylated ubiquitin mixture (1:8 proportion) was immobilized on the CM5-streptavidin chip. This interaction was also analysed by immobilizing the Fc-domain 11^AB5 and Fc-domain 11^AB5-RHH (or Fc-domain 11^I1572A as control) by Human Antibody Capture (monoclonal mouse anti-human IgG antibody immobilised on a CM5 chip by amine coupling, GE Healthcare) with and without human IgG1 Fc fragment (Bethyl Laboratories, UK) in the control flow cell. […] T200 BiaEvaluation software (GE Healthcare) was used to fit the resulting curves according to a 1:1 binding model. Steady state affinities were determined using the kinetic data, taking the response average at 5 seconds before injection end and for 5 seconds average. Thermodynamic data was performed across the temperature range of 10° C. to 30° C., van't Hoff and Erying plots generated and ΔH, −TΔS and ΔG values determined as previously described.

Kd [nM] | Binder
0.78 | B2

Molecular target: T1, human IGF2^1-67 (mature insulin-like …)
Assay: SPR kinetic, biotin-IGF2 on chip, pH 7.4
Procedure, shortened: (§2)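 Biotinylated IGF2 captured on streptavidin chip; recombinant M6P/IGF2R domain 11 mutants (E. coli or P. pastoris) injected at 25° C in HBS-EP, pH 7.4, 40 μL min⁻¹. Kinetics fitted to 1:1 model; steady-state KD from 5 s response averages before injection end; 2-5 repeats on two chips.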

Kd [nM] | koff [s⁻¹] | kon [M⁻¹ s⁻¹] | Binder
5.07 | 0.0208 | 4.21e+06 | B1

Molecular target: T1, human IGF2^1-67 (mature insulin-like …)
Assay: SPR kinetic, biotin-IGF2 on chip, pH 7.4
Remark: another data set of the same source
Procedure, shortened: (§3)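 Biacore SPR at 25 °C in HBS-EP pH 7.4 or MES-EP pH 6.5, flow 40 μL/min; ~50 RU biotin-IGF2:biotin-ubiquitin (1:8) on streptavidin chip, or Fc-domain 11 captured via anti-human IgG. Kinetics fitted to 1:1 model; steady-state affinity from response averaged 5 s before injection end.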

Kd [nM] | koff [s⁻¹] | kon [M⁻¹ s⁻¹] | Binder
5.07 | 0.0208 | 4.21e+06 | B1
1.95 | 0.0058 | 3.2e+06 | B3
0.74 | 0.01 | 1.41e+07 | B4
0.87 | 0.0058 | 6.67e+06 | B5
0.65 | 0.0038 | 5.9e+06 | B6
1.17 | 0.0046 | 3.5e+06 | B7
0.62 | 0.0108 | 1.75e+07 | B2
0.9 | 0.0153 | 1.89e+07 | B8

Molecular target: T1, human IGF2^1-67 (mature insulin-like …)
Assay: SPR kinetic, biotin-IGF2 on chip, pH 6.5
Experimental: Measurements were carried out at 25° C. in MES-EP buffer, 20 mM MES pH 6.5, 150 mM NaCl, 3 mM EDTA, and 0.005% (v/v) surfactant P20). Data for KD expressed as mean of each experiment, and means of kon and koff are shown.
as §1

Kd [nM] | koff [s⁻¹] | kon [M⁻¹ s⁻¹] | Binder
4.38 | 0.018 | 4.17e+06 | B1
1.46 | 0.0034 | 2.37e+06 | B3
0.4 | 0.0064 | 1.61e+07 | B4
0.69 | 0.0051 | 7.54e+06 | B5
0.71 | 0.003 | 4.41e+06 | B6
0.62 | 0.0029 | 5.32e+06 | B7
0.43 | 0.0087 | 2.43e+07 | B2
0.47 | 0.0091 | 1.99e+07 | B8

Molecular target: T1, human IGF2^1-67 (mature insulin-like …)
Assay: SPR steady state, biotin-IGF2 on chip, pH 7.4
Procedure, shortened: as §2

Kd [nM] | Binder
6.44 | B1

Molecular target: T1, human IGF2^1-67 (mature insulin-like …)
Assay: SPR steady state, biotin-IGF2 on chip, pH 7.4
Remark: another data set of the same source
Procedure, shortened: as §3

Kd [nM] | Binder
6.44 | B1
5.4 | B3
1.53 | B4
2.01 | B5
2 | B6
2.93 | B7
1.31 | B2
1.73 | B8

Molecular target: T1, human IGF2^1-67 (mature insulin-like …)
Assay: SPR, biotin-IGF2 on chip, lower pH (6.5); reference domain 11^WT
Experimental: as §1

fold improved overall affinity compared to domain 11^WT [fold] | Binder
100 | B4
100 | B2

Molecular target: T1, human IGF2^1-67 (mature insulin-like …)
Assay: SPR (Biacore T200, 25 °C, HBS-EP pH 7.4); ΔΔG° = RT ln(KD mutant / KD domain 11^AB3); box AB
Experimental: (§4) Boxes show the change in the binding free energy contribution, ΔΔGº, for the indicated mutants. The loop/s that contains the mutation/s is indicated in each box. The ΔΔGº values were calculated as ΔΔGº=ΔGº domain 11^mutant−ΔGº domain 11^AB3=RTln(KD domain 11^mutant/KD domain 11^AB3). Additive and non-additive contributions of single point mutations are shown when calculated with a box solid line and dashed line, respectively.
(§5) Final kinetic analysis of mutants by SPR was conducted using a Biacore T200 biosensor at 25° C. in either HBS-EP (10 mM HEPES pH 7.4, 150 mM NaCl, 3 mM EDTA, and 0.005% (v/v) surfactant P20) or MES-EP (20 mM MES pH 6.5, 150 mM NaCl, 3 mM EDTA, and 0.005% (v/v) surfactant P20) at a flow-rate of 40 μL min⁻¹. […] This interaction was also analysed by immobilizing the Fc-domain 11^AB5 and Fc-domain 11^AB5-RHH (or Fc-domain 11^I1572A as control) by Human Antibody Capture (monoclonal mouse anti-human IgG antibody immobilised on a CM5 chip by amine coupling, GE Healthcare) with and without human IgG1 Fc fragment (Bethyl Laboratories, UK) in the control flow cell. […] Steady state affinities were determined using the kinetic data, taking the response average at 5 seconds before injection end and for 5 seconds average.

ΔΔG [kcal/mol] | Binder
-0.65 | B1

Molecular target: T1, human IGF2^1-67 (mature insulin-like …)
Assay: SPR (Biacore T200, 25 °C, HBS-EP pH 7.4); ΔΔG° = RT ln(KD mutant / KD domain 11^AB3); box AB+CD+FG+FG
Experimental: as §4, §5

ΔΔG [kcal/mol] | Binder
-1.79 | B4
-1.9 | B2

Molecular target: T1, human IGF2^1-67 (mature insulin-like …)
Assay: SPR (Biacore T200, 25 °C, HBS-EP pH 7.4); ΔΔG° = RT ln(KD mutant / KD domain 11^AB3); box AB+FG+FG, solid outline
Experimental: as §4, §5

ΔΔG [kcal/mol] | Binder
-1.52 | B7

Molecular target: T1, human IGF2^1-67 (mature insulin-like …)
Assay: SPR (Biacore T200, 25 °C, HBS-EP pH 7.4); ΔΔG° = RT ln(KD mutant / KD domain 11^AB3); box AB+CD+FG, dashed outline
Experimental: as §4, §5

ΔΔG [kcal/mol] | Binder
-1.22 | B3
-1.68 | B8

Molecular target: T1, human IGF2^1-67 (mature insulin-like …)
Assay: SPR (Biacore T200, 25 °C, HBS-EP pH 7.4); ΔΔG° = RT ln(KD mutant / KD domain 11^AB3); box AB+CD+FG+FG, solid outline
Experimental: as §4, §5

ΔΔG [kcal/mol] | Binder
-1.87 | B6

Molecular target: T1, human IGF2^1-67 (mature insulin-like …)
Assay: SPR (Biacore T200, 25 °C, HBS-EP pH 7.4); ΔΔG° = RT ln(KD mutant / KD domain 11^AB3); box AB+CD+FG+FG, dashed outline
Experimental: as §4, §5

ΔΔG [kcal/mol] | Binder
-1.7 | B5

From US20180237497A1 (CANCER RESEARCH TECHNOLOGY, published 2018)
